# Molecular target: the molecule itself
# Test: crystal structure; SaGpsB 1-75 at 5 mg/mL, no ligand; reservoir 1.0 M succinic acid, 0.1 M HEPES pH 7.5, 1 %w/v PEG 2000 MME; one dimer in the asymmetric unit; molecular replacement
protein,measurement,value
"N-terminal domain (residues 1–75) of Staphylococcus aureus GpsB (domain or fragment, Staphylococcus aureus strain NCTC 8325, UniProt Q2FYI5 1-75, looked up, GpsB, Staphylococcus aureus strain NCTC 8325, Uniprot Q2FYI5, SAOUHSC_01462, residues 1-75 (N-terminal dimerization domain); Asymmetric homodimer in the crystal; also called SaGpsB; GpsB 1–75; source: E. coli BL21 (DE3), purified (Ni-NTA, SUMO protease cleavage, anion exchange, Superdex75 SEC); not shown: 10xHis, N-terminal, cleaved; SUMO, N-terminal, cleaved) MSDVSLKLSAKDIYEKDFEKTMARGYRREEVDAFLDDIIADYQKMADMNNEVVKLSEENHKLKKELEELRLRVAT",stoichiometry N,2
